Data from article PMC5821868, “Human Semaphorin-4A drives Th2 responses by binding to receptor ILT-4” (Nature Communications, 2018).

Biological target: T1, recombinant SEMA4A-Fc (Sino Bio. Inc) (human, UniProt Q9H3S1 33-683)
T1 construct: Semaphorin-4A (SEMA4A), human; Used only in the SPR experiment, coated on the CM5 chip; Probably the extracellular domain (surmise); no catalogue number is printed; also called hSEMA4A; source: bought: Sino Bio; Inc
T1 sequence (looked up): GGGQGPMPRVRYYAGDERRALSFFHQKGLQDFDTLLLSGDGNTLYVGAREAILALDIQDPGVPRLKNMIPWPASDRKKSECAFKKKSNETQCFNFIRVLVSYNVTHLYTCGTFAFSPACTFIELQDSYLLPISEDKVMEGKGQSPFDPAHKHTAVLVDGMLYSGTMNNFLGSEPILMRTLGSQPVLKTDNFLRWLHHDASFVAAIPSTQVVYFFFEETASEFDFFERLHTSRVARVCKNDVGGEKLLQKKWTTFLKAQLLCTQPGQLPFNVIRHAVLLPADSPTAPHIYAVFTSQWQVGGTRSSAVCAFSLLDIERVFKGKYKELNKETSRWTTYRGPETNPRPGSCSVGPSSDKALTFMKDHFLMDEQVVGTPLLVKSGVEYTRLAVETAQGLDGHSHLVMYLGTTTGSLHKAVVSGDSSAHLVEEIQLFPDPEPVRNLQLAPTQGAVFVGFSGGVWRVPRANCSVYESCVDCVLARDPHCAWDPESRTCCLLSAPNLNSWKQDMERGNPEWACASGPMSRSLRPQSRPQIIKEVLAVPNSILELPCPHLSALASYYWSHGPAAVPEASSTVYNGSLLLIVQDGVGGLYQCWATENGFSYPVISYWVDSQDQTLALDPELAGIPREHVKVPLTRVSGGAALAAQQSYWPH
Assay: SPR; SEMA4A-Fc (Sino Bio. Inc, 25 ug/ml) coated on a series S CM5 chip; ILT-4-Fc flowed at 10 to 0.625 uM in twofold dilutions; 25 °C; BIAcore T100
Settings: both partners purified

Kd: 3.8 µM
B1: recombinant ILT-4-Fc fusion protein (R&D Systems) (Fc fusion, human, UniProt Q8N423 22-460, looked up)
chain: QTGTIPKPTLWAEPDSVITQGSPVTLSCQGSLEAQEYRLYREKKSASWITRIRPELVKNGQFHIPSITWEHTGRYGCQYYSRARWSELSDPLVLVMTGAYPKPTLSAQPSPVVTSGGRVTLQCESQVAFGGFILCKEGEDEHPQCLNSQPHARGSSRAIFSVGPVSPNRRWSHRCYGYDLNSPYVWSSPSDLLELLVPGVSKKPSLSVQPGPVMAPGESLTLQCVSDVGYDRFVLYKEGERDLRQLPGRQPQAGLSQANFTLGPVSRSYGGQYRCYGAHNLSSECSAPSDPLDILITGQIRGTPFISVQPGPTVASGENVTLLCQSWRQFHTFLLTKAGAADAPLRLRSIHEYPKYQAEFPMSPVTSAHAGTYRCYGSLNSDPYLLSHPSEPLELVVSGPSMGSSPPPTGPISTPGPEDQPLTPTGSDPQSGLGRHLGV
notes: Immunoglobulin-like transcript 4 (ILT-4, LILRB2), human; APC-labelled with the Zenon labeling kit for flow cytometry; Probably the extracellular domain of ILT-4 (surmise); no catalogue number is printed; also called APC-ILT-4-Fc; hILT-4; source: bought: R&D Systems
